Data taken from patent publication US20250034227A1.

Tests used:
[1] = biological target: HLA-A*02 tetramers with the 9 similar peptides (SimPeps, SEQ ID NOs: 59-67); assay: yeast display, flow cytometry, SimPep tetramer mix, 25 nM each
[2] = biological target: HLA-A*02 tetramers with the 9 similar peptides (SimPeps, SEQ ID NOs: 59-67); assay: yeast display, 9 similar peptides, 10 nM HLA-A*02 tetramer

| yeast cells stained positive [1] [%] | similar peptide binding, % positive cells [2] [%] | Binder |
| --- | --- | --- |
| 0 | – | scTCR R76P1E1S with matured CDRb1 RPVTM (TCR) EDVEQSSFLSVREGDSAVINCTYTDSSSTYFYWYKQEPGAGLQLLTYIFSNMDMKQDQRLTVLLNKKDKHLSLRIADTQTGDSAIYFCAVKDNARLMFGDGTQLVVKPGGGGSGGGGSGGGGSGGGGSGGGGSGAVISQKPSRDIVQRGNSVTIQCQVDRPVTMMFWYRQQPGQSLTLIATANQGSEATYESGFVIDKFPISRPNLTFSTLTVSNMSPEDSSIYLCSVLGAYGYTFGSGTRLTVV |
| – | 0 | scTCR CL-21753 (TCR) EDVEQSSFLSVREGDSAVINCTYTDASSTYFYWYKQEPGAGLQLLTYIFSNMDMKQDQRLTVLLNKKDKHLSLRIADTQTGDSAIYFCAVKDNARLMFGDGTQLVVKPGGGGSGGGGSGGGGSGGGGSGGGGSAVISQKPSRDIVQRGNSVTIQCQVDRPVTMMFWYRQQPGQSLTLIATAYDEGSATYESGFVIDKFPISRPNLTFSTLTVSNMSPEDSSIYLCSVLGAYGYTFGSGTRLTVV |
